Measured values: paper PMC7866087, “Evaluation of Computationally Designed Peptides against TWEAK, a Cytokine of the Tumour Necrosis Factor Ligand Family” (International Journal of Molecular Sciences, 2021)

System: TWEAK-Fn14 signalling pathway, BRV5 cells
Test: Cell-based screening of individual peptides, gene expression microarray in TWEAK-stimulated BRV5 cells
Design: species or system human
Details: for BIRC2 expression Z-Score / HSP90B1 expression Z-Score / IL6 expression Z-Score / JUN expression Z-Score / MAP4K4 expression Z-Score / MAPK14 expression Z-Score / NFKB2 expression Z-Score / TNFRSF12A expression Z-Score / TRAF2 expression Z-Score: normalized to NARS2
Outline: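 Serum-starved BRV5 cells were treated with individual peptides at 450 µM, given once or re-dosed hourly, every two hours or every three hours, with or without TWEAK at 25 ng/mL. RNA was harvested after 6 h, and expression of TWEAK-Fn14 downstream genes plus two housekeeping genes was quantified by Fluidigm EvaGreen qPCR as Ct and delta Ct values.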

[1] = TWEAK control T, BRV5, 6 h, replicate column 3
[2] = TWEAK control T, BRV5, 6 h, replicate column 4
[3] = individual peptides, BRV5 + TWEAK, 450 µM, 6 h, mean of replicate columns
[4] = individual peptides, BRV5 + TWEAK, 450 µM, 6 h, replicate column 1
[5] = individual peptides, BRV5 + TWEAK, 450 µM, 6 h, replicate column 2
[6] = individual peptides, BRV5 + TWEAK, 6 h
[7] = individual peptides, BRV5 + TWEAK, 6 h, listed as T

B1: tumour necrosis factor-like weak inducer of apoptosis (protein, UniProt O43508 94-249, looked up)
Tumor necrosis factor ligand …: SAPKGRKTRARRAIAAHYEVHPRPGQDGAQAGVDGTVSGWEEARINSSSPLRYNRQIGEFIVTRAGLYYLYCQVHFDEGKAVYLKLDLLVDGVLALRCLEEFSATAASSLGPQLRLCQVSGLLALRPGSSLRIRTLPWAHLKAAPFLTYFGLFQVH
[1]
  BIRC2 mRNA expression (normalized to NARS2): 1.027
  HSP90B1 mRNA expression (normalized to NARS2): 3.037
  JUN mRNA expression (normalized to NARS2): 0.03535
  MAP4K4 mRNA expression (normalized to NARS2): 0.2587
  MAPK14 mRNA expression (normalized to NARS2): 0.3748
  NFKB2 mRNA expression (normalized to NARS2): 0.06251
  TNFRSF12A mRNA expression (normalized to NARS2): 0.03969
  TRAF2 mRNA expression (normalized to NARS2): 0.07995
[2]
  BIRC2 mRNA expression (normalized to NARS2): 1.011
  HSP90B1 mRNA expression (normalized to NARS2): 2.84
  JUN mRNA expression (normalized to NARS2): 0.03216
  MAP4K4 mRNA expression (normalized to NARS2): 0.2342
  MAPK14 mRNA expression (normalized to NARS2): 0.332
  NFKB2 mRNA expression (normalized to NARS2): 0.06133
  TNFRSF12A mRNA expression (normalized to NARS2): 0.03763
  TRAF2 mRNA expression (normalized to NARS2): 0.08704
[3]
  BIRC2 mRNA expression (normalized to NARS2): 0.9889
  HSP90B1 mRNA expression (normalized to NARS2): 2.734
  IL6 mRNA expression (normalized to NARS2): 0.00008785
  JUN mRNA expression (normalized to NARS2): 0.02837
  MAP4K4 mRNA expression (normalized to NARS2): 0.2098
  MAPK14 mRNA expression (normalized to NARS2): 0.3339
  NFKB2 mRNA expression (normalized to NARS2): 0.05526
  TNFRSF12A mRNA expression (normalized to NARS2): 0.03637
  TRAF2 mRNA expression (normalized to NARS2): 0.06681
[4]
  BIRC2 mRNA expression (normalized to NARS2): 0.9782
  HSP90B1 mRNA expression (normalized to NARS2): 2.649
  IL6 mRNA expression (normalized to NARS2): 0.0001501
  JUN mRNA expression (normalized to NARS2): 0.02253
  MAP4K4 mRNA expression (normalized to NARS2): 0.1844
  MAPK14 mRNA expression (normalized to NARS2): 0.3328
  NFKB2 mRNA expression (normalized to NARS2): 0.05313
  TNFRSF12A mRNA expression (normalized to NARS2): 0.03435
  TRAF2 mRNA expression (normalized to NARS2): 0.05236
[5]
  BIRC2 mRNA expression (normalized to NARS2): 0.9396
  HSP90B1 mRNA expression (normalized to NARS2): 2.412
  IL6 mRNA expression (normalized to NARS2): 0.00002557
  JUN mRNA expression (normalized to NARS2): 0.02345
  MAP4K4 mRNA expression (normalized to NARS2): 0.162
  MAPK14 mRNA expression (normalized to NARS2): 0.2958
  NFKB2 mRNA expression (normalized to NARS2): 0.04407
  TNFRSF12A mRNA expression (normalized to NARS2): 0.03379
  TRAF2 mRNA expression (normalized to NARS2): 0.04788
[6]
  BIRC2 expression Z-Score: 2.98
  HSP90B1 expression Z-Score: 0.8798
  IL6 expression Z-Score: -1.558
  JUN expression Z-Score: -0.7938
  MAP4K4 expression Z-Score: 0.6195
  MAPK14 expression Z-Score: 2.332
  NFKB2 expression Z-Score: 1.408
  TNFRSF12A expression Z-Score: 1.8
  TRAF2 expression Z-Score: 2.292
[7]
  BIRC2 expression Z-Score: 2.9803
  HSP90B1 expression Z-Score: 0.8798
  IL6 expression Z-Score: -1.5585
  JUN expression Z-Score: -0.7938
  MAP4K4 expression Z-Score: 0.6195
  MAPK14 expression Z-Score: 2.3319
  NFKB2 expression Z-Score: 1.4080
  TNFRSF12A expression Z-Score: 1.8000
  TRAF2 expression Z-Score: 2.2919
